Measurements published in the supplement of paper PMC12783771.
± gives the standard deviation of the averaged measurements.

B1: library; numbered along this chain (parent)
chain: MNIQIGELAKRTACPVVTIRFYEQEGLLPPPGRSRGNFRLYGEEHVERLQFIRHCRSLDMPLSDVRTLLSYRKRPDQDCGEVNMLLDEHIRQVESRIGALLELKHHLVELREACSGARPAQSCGILQGLSDCVCDTRGTTAHPSD

Legend:
[1] = variants of: B1; assay: sfGFP reporter fluorescence (15 h) (µM FITC); higher = higher leak; conditions: library round: Round 0; ligand: none
Summary of the method: (§1)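 With 1 µM lead chloride, 30 µM zinc acetate or no metal present, 1 μL Echo-assembled reactions were incubated 15 hr at 30 °C. They contained BL21 Star (DE3) PANOx-SP extract, 30 μg/mL GamS, the pPbrR-sfGFP reporter plasmid and PCR-made linear PbrR templates Echo-normalized to 5 nM. Endpoint sfGFP fluorescence was read on a Synergy Neo2 at 485/528 nm against FITC standards in 50 mM sodium borate pH 8.5. Results are expressed as µM FITC.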

[2] = variants of: B1; assay: sfGFP reporter fluorescence (15 h) (µM FITC); higher = stronger transcriptional activation; conditions: library round: Round 0
Summary of the method: as §1

Variant	sfGFP reporter fluorescence [1]	sfGFP reporter fluorescence ([2]; ligand: 1 µM Pb)	sfGFP reporter fluorescence ([2]; ligand: 30 µM Zn)
P61V	0.0651 ± 0.0013	0.09 ± 0.0029	0.302
P61D	0.0729	0.123 ± 0.0044	0.709 ± 0.02
Y41V	0.059 ± 0.001	0.05974 ± 0.00052	0.0687 ± 0.0013
Y41G	0.0563 ± 0.00078	0.0564 ± 0.001	0.0579 ± 0.0026
Y41C	0.0618 ± 0.0018	0.0592 ± 0.00078	0.0654 ± 0.0018
Y41F	0.0572 ± 0.0031	0.1001 ± 0.00052	1.19 ± 0.041
Y41L	0.0597	0.0596 ± 0.0029	0.0729 ± 0.0083
L62G	0.0586 ± 0.001	0.0579 ± 0.0015	0.0614 ± 0.00078
P30T	0.06395 ± 0.00026	0.0887	0.917 ± 0.17
P30R	0.06414 ± 0.00052	0.088	1.15 ± 0.039
P30M	0.06322 ± 0.00026	0.09162 ± 0.00052	0.859 ± 0.079
Q50A	0.06615 ± 0.00026	0.0891	0.743 ± 0.019
M60L P61N G128M	0.822 ± 0.13	1.91 ± 0.38	3.32 ± 0.64
P143T	0.05772 ± 0.00026	0.0713 ± 0.0065	0.821 ± 0.11
P143D	0.05754 ± 0.00052	0.0733 ± 0.0021	0.782 ± 0.024
K104I	0.0616 ± 0.0057	0.165 ± 0.044	1.22 ± 0.053
K104H	0.0762 ± 0.0036	0.189 ± 0.081	1.56 ± 0.38
K104V	0.0652 ± 0.0088	0.173 ± 0.039	1.35 ± 0.19
K104T	0.0619 ± 0.0021	0.0925 ± 0.015	0.865 ± 0.13
T67A	0.06047 ± 0.00052	0.0709 ± 0.0018	0.381 ± 0.063
I90W	0.0585 ± 0.0023	0.0619 ± 0.001	0.272 ± 0.0062
P15F	0.0662 ± 0.0018	0.0702 ± 0.0049	0.256 ± 0.013

Variant	sfGFP reporter fluorescence [1]	sfGFP reporter fluorescence ([2]; ligand: 1 µM Pb)	sfGFP reporter fluorescence ([2]; ligand: 30 µM Zn)
P15W	0.061 ± 0.0013	0.06139 ± 0.00026	0.06634 ± 0.00052
P15E	0.0718 ± 0.001	0.088 ± 0.0021	0.4297 ± 0.0023
P15G	0.0643 ± 0.0018	0.085 ± 0.0047	0.447 ± 0.028
P15K	0.0634	0.0958 ± 0.01	1.34 ± 0.047
D131T	0.06267 ± 0.00052	0.0914 ± 0.012	0.747 ± 0.23
D131R	0.0733 ± 0.00052	0.17 ± 0.022	1.65 ± 0.29
D131V	0.0641 ± 0.001	0.0905 ± 0.0078	0.984 ± 0.15
D131M	0.0687 ± 0.0018	0.126 ± 0.0073	1.17 ± 0.17
R72A	0.06175 ± 0.00026	0.0687 ± 0.008	0.3731 ± 0.0026
M60I	0.12 ± 0.0029	0.319 ± 0.03	2.58 ± 0.063
M60Q	0.0603 ± 0.00078	0.0588 ± 0.0018	0.0614 ± 0.0013
M60L P61N K104V G128I	0.148 ± 0.0083	0.448 ± 0.098	1.76 ± 0.23
M60L P61N K104V G128M	0.547 ± 0.013	1.69 ± 0.41	3.84 ± 0.1
E25A	0.0634 ± 0.0036	0.0823 ± 0.0029	0.611 ± 0.041
G128Y	0.0755	0.203 ± 0.018	1.37 ± 0.067
G128L	0.0715 ± 0.0031	0.203 ± 0.03	2.04 ± 0.21
P61N D64K G128M	1.01 ± 0.069	2.17 ± 0.97	4.15 ± 0.24
D135K	0.0618 ± 0.0018	0.085 ± 0.0015	0.962 ± 0.052
D64F	0.267 ± 0.014	1.01 ± 0.054	3.86 ± 0.28
D64K	0.154 ± 0.049	0.382 ± 0.023	3.306 ± 0.03
D64G	0.06322 ± 0.00026	0.121 ± 0.0054	1.26 ± 0.049
D64E	0.0581 ± 0.0018	0.061 ± 0.0013	0.1552 ± 0.00078

Variant	sfGFP reporter fluorescence [1]	sfGFP reporter fluorescence ([2]; ligand: 1 µM Pb)	sfGFP reporter fluorescence ([2]; ligand: 30 µM Zn)
T12A	0.0564 ± 0.0026	0.0733 ± 0.0015	0.611 ± 0.019
R111V	0.0586 ± 0.001	0.0744 ± 0.0021	0.483 ± 0.0073
R111I	0.0544 ± 0.00078	0.0662 ± 0.0013	0.288 ± 0.0036
I3K	0.0608 ± 0.001	0.0652 ± 0.0057	0.308 ± 0.008
I3G	0.061 ± 0.0023	0.0755 ± 0.0047	0.1957 ± 0.001
I3T	0.0597 ± 0.001	0.0667 ± 0.0047	0.331 ± 0.011
I3R	0.0605	0.0792	0.376 ± 0.024
I3Q	0.0548 ± 0.0029	0.0671 ± 0.0026	0.336 ± 0.0075
E109S	0.0592 ± 0.00078	0.0803 ± 0.0026	1.47 ± 0.04
E109K	0.0649 ± 0.001	0.09492 ± 0.00052	2.2 ± 0.14
E109P	0.0662 ± 0.0023	0.155 ± 0.011	1.45 ± 0.11
E109Q	0.0601	0.0823 ± 0.0034	1.08 ± 0.25
E109Y	0.06029 ± 0.00026	0.0832 ± 0.0031	1.46 ± 0.15
E109W	0.061 ± 0.00078	0.0872 ± 0.0026	1.26 ± 0.035
C134V	0.0667 ± 0.00052	0.0894 ± 0.0047	1.13 ± 0.25
C134I	0.0678 ± 0.001	0.113 ± 0.0044	1.19 ± 0.11
C134D	0.06157 ± 0.00052	0.0684 ± 0.0018	1.004 ± 0.008
E7C	0.06121 ± 0.00052	0.0718 ± 0.0021	0.421 ± 0.026
E7F	0.0601 ± 0.0015	0.0636 ± 0.0013	0.133 ± 0.012
H106A	0.0596 ± 0.0034	0.0667 ± 0.00052	0.213 ± 0.02
G36V	0.06011 ± 0.00052	0.0711 ± 0.00052	0.322 ± 0.011
C114P	0.0552 ± 0.0013	0.0563 ± 0.0013	0.05204 ± 0.00052

Variant	sfGFP reporter fluorescence [1]	sfGFP reporter fluorescence ([2]; ligand: 1 µM Pb)	sfGFP reporter fluorescence ([2]; ligand: 30 µM Zn)
C114M	0.05937 ± 0.00052	0.0603 ± 0.0013	0.0616 ± 0.0015
C114F	0.0572 ± 0.0015	0.0577 ± 0.00078	0.053 ± 0.0013
C114E	0.05699 ± 0.00026	0.0579 ± 0.001	0.0533 ± 0.0023
C114D	0.0585 ± 0.00078	0.0588 ± 0.0018	0.0564 ± 0.0036
L68W	0.0627 ± 0.0026	0.06157 ± 0.00052	0.111 ± 0.0018
L68T	0.0612 ± 0.0015	0.0605 ± 0.001	0.0717 ± 0.0013
R20V	0.0623 ± 0.00052	0.0618 ± 0.0023	0.0627 ± 0.0026
R20Y	0.06249 ± 0.00026	0.06377 ± 0.00052	0.124 ± 0.0018
R20D	0.0614 ± 0.0023	0.0616 ± 0.0015	0.0687 ± 0.0013
R20N	0.06304 ± 0.00052	0.0674 ± 0.001	0.102 ± 0.0044
E94A	0.0738 ± 0.0044	0.0867 ± 0.0065	0.333 ± 0.015
E94R	0.0597 ± 0.0052	0.0803 ± 0.0031	0.722 ± 0.032
H89W	0.0607 ± 0.0023	0.0585 ± 0.00078	0.06084 ± 0.00052
H89T	0.0614 ± 0.00078	0.0579 ± 0.0021	0.0588 ± 0.0054
H89Q	0.0645 ± 0.0047	0.108 ± 0.0029	1.3 ± 0.08
H89C	0.0553 ± 0.0015	0.0574 ± 0.0039	0.0614 ± 0.0034
H89A	0.05992 ± 0.00026	0.05699 ± 0.00026	0.06725 ± 0.00026
L28D	0.06194 ± 0.00052	0.0632 ± 0.00078	0.06359 ± 0.00026
L28G	0.05882 ± 0.00026	0.0581 ± 0.00078	0.059 ± 0.001
L129T	0.05827 ± 0.00052	0.0581 ± 0.00078	0.055 ± 0.0021
L129V	0.0557 ± 0.001	0.05717 ± 0.00052	0.05351 ± 0.00052
L129C	0.0561 ± 0.0015	0.05791 ± 0.00052	0.05443 ± 0.00026
